Measurements reported in patent US10677782B2, “Methods of determining interferon having direct inhibitory effects on tumors and uses thereof” (SUPERLAB FAR EAST LIMITED, priority 2013, dated 2020).

Tests used:
Assay type in all cases: cell-based, human
[1] = test system: phosphorylation of STAT1 (Tyr701), STAT2 (Tyr690), STAT3 (Tyr705) in A549 cells; assay: STAT phosphorylation by Western Blot; conditions: 10 μg/ml; 0, 5, 15, 30, 60, 120 and 240 minutes
Excerpt: (§1) After treatment, the cells were collected, cellular proteins were extracted and loaded onto SDS-PAGE […] for Western Blot analysis to observe the phosphorylation of STAT1 (Tyr701), STAT2 (Tyr690), and STAT3(Tyr705). GAPDH was used as a loading control.
(§2) The primary antibodies used were: STAT1 (1:1000, Cat #: 9175S), Tyr701 phosphorylated-STAT1 (1:1000, Cat #: 9167S), STAT2 (1:500, Cat #4594), Tyr690 phosphorylated-STAT2 (1:1000, Cat #: 441S), STAT3 (1:1000, Cat #: 9132), Tyr705 phosphorylated-STAT3 (1:1000, Cat #: 9145S). Anti-mouse (Cat #: sc-2005) or rabbit (Cat #: sc-2004) or goat (Cat #: sc-2020) HRP-conjugated secondary antibodies (Santa Cruz Technology, Santa Cruz, Calif.) were used at concentrations of 1:2000. Blots were visualized by use of Luminescence/Fluorescence Imaging LAS4000 System (GE Healthcare Life Sciences, USA) with super signal west pico chemiluminescnet substrate kit (Thermo Scientific, USA).

[2] = test system: phosphorylation of STAT1 (Tyr701), STAT2 (Tyr690), STAT3 (Tyr705) in Hela cells; assay: STAT phosphorylation by Western Blot; conditions: 10 μg/ml; 0, 5, 15, 30, 60, 120 and 240 minutes
Excerpt: as §1, §2

[3] = test system: Axin2 mRNA in A549 cells; assay: qPCR of Wnt pathway target genes in A549 cells; conditions: 10 μg/ml, 24 hr; Mock control set at 1
Method: (§3) After 24 hr of treatment, cellular total mRNA was isolated using TRIZOL Reagent and cDNA was synthesized and further subjected to qPCR, using specific primers of four (4) Wnt signaling downstream genes, Axin2, CD24, Survivin and ID2. Experiments were conducted in triplicate and normalized with the Mock group.
(§4) Total mRNA was isolated using TRIZOL Reagent (Invitrogen, Carlsbad, Calif.) according to the manufacturer's instructions. Complementary DNA (cDNA) was synthesized using a RT-PCR Kit (Cat #: FSQ-101, TOYOBO, Japan) according to the manufacturer's instructions and then subjected to qPCR with a SYBR Green PCR kit (Cat #: QPK-201, TOYOBO, Japan). The primers of the four Wnt pathway target genes were as follows: Axin2 sense primer: 5′-[…]-3′ (SEQ ID NO:8) and antisense primer: 5′-[…]-3′ (SEQ ID NO: 9); CD24 sense primer: 5′-[…]-3′ (SEQ ID NO: 10) andantisense primer: 5′-[…]-3′ (SEQ ID NO: 11); Survivin sense primer: 5′-[…]-3′ (SEQ ID NO: 12) and antisense primer: 5′-[…]-3′ (SEQ ID NO: 13) and ID2 sense primer: 5′-[…]-3′ (SEQ ID NO: 14) and antisense primer: 5′-[…]-3′ (SEQ ID NO: 15).
(§5) The amplification protocol consisted of incubations at 95° C. for 1 minute, 40 cycles (95° C. for 15 seconds, 60° C. for 15 seconds, 72° C. for 30 seconds). Incorporation of the SYBR Green dye into PCR products was monitored in real time with a Bio-Rad Detection System and subsequently analyzed using Bio-Rad CFX manager 2.1 software. The samples were pooled for each condition and run in duplicate. Treated samples were compared to Mock using the 2^−ΔΔCt method and plotted as fold change. GAPDH was used as the normalization control.

[4] = test system: CD24 mRNA in A549 cells; assay: qPCR of Wnt pathway target genes in A549 cells; conditions: 10 μg/ml, 24 hr; Mock control set at 1
Method: as §3, §4, §5

[5] = test system: ID2 mRNA in A549 cells; assay: qPCR of Wnt pathway target genes in A549 cells; conditions: 10 μg/ml, 24 hr; Mock control set at 1
Method: as §3, §4, §5

[6] = test system: Survivin mRNA in A549 cells; assay: qPCR of Wnt pathway target genes in A549 cells; conditions: 10 μg/ml, 24 hr; Mock control set at 1
Method: as §3, §4, §5

B1: rSIFN-co: Recombinant super-compound interferon; amino acid sequence SEQ ID NO: 1 (same as interferon alfacon-1), encoded by SEQ ID NO: 2, novel tertiary structure (protein)
chain: MCDLPQTHSLGNRRALILLAQMRRISPFSCLKDRHDFGFPQEEFDGNQFQKAQAISVLHEMIQQTFNLFSTKDSSAAWDESLLEKFYTELYQQLNDLEACVIQEVGVEETPLMNVDSILAVKKYFQRITLYLTEKKYSPCAWEVVRAEIMRSFSLSTNLQERLRRKE
modifications: Amino acid sequence of recombinant interferon
phosphorylation patterns for STAT1, STAT2 and STAT3 [1]: behaved similarly in their phosphorylation patterns for STAT1, STAT2 and STAT3
phosphorylation patterns for STAT1, STAT2 and STAT3 [2]: behaved similarly in their phosphorylation patterns for STAT1, STAT2 and STAT3
relative expression level of Axin2 mRNA [3]: about 0.4
relative expression level of CD24 mRNA [4]: about 0.4
relative expression level of ID2 mRNA [5]: about 0.4
relative expression level of Survivin mRNA [6]: about 0.4
